Results reported in patent US20240066100A1.

Assays:
[1] = target: human IL-18BP (amino acids 31-194), biotinylated (human) (UniProt O95998); assay: yeast display binding; conditions: ligand
Target sequence in this assay (O95998 other isoform, or with tags, fused parts or gaps): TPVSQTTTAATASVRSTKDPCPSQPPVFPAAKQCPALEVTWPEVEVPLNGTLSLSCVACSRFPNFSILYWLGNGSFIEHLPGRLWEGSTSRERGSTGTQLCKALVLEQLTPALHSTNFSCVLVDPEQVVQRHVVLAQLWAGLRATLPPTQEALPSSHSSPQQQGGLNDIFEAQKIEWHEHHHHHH

[2] = target: human IL-18BP (amino acids 31-194), biotinylated (human) (UniProt O95998); assay: SPR
[3] = target: human IL-18BP (amino acids 31-194), biotinylated (human) (UniProt O95998); assay: SPR, Biacore T100; biotinylated receptor on chip, IL-18 as analyte
Target sequence in this assay (O95998 other isoform, or with tags, fused parts or gaps limits assumed, form in doubt): as the sequence (O95998 other isoform, or with tags, fused parts or gaps) above

[4] = target: human IL-18BP (amino acids 31-194), biotinylated (human) (UniProt O95998); assay: on-yeast binding isotherm, flow cytometry
Target sequence in this assay (O95998 other isoform, or with tags, fused parts or gaps limits assumed, form in doubt): as the sequence (O95998 other isoform, or with tags, fused parts or gaps) above

[5] = target: human IL-18BP (amino acids 31-194), biotinylated (human) (UniProt O95998); assay: SPR, Biacore T100; hIL-18BP as surface ligand, IL-18 as analyte
Target sequence in this assay (O95998 other isoform, or with tags, fused parts or gaps limits assumed, form in doubt): as the sequence (O95998 other isoform, or with tags, fused parts or gaps) above

[6] = target: human IL-18BP (amino acids 31-194), biotinylated (human) (UniProt O95998); assay: SPR, Biacore T100; hIL-18BP as surface ligand; Exp 2
Target sequence in this assay (O95998 other isoform, or with tags, fused parts or gaps limits assumed, form in doubt): as the sequence (O95998 other isoform, or with tags, fused parts or gaps) above

[7] = target: human IL-18BP (amino acids 31-194), biotinylated (human) (UniProt O95998); assay: SPR, Biacore T100
Target sequence in this assay (O95998 other isoform, or with tags, fused parts or gaps limits assumed, form in doubt): as the sequence (O95998 other isoform, or with tags, fused parts or gaps) above

[8] = target: human IL-18BP (amino acids 31-194), biotinylated (human) (UniProt O95998); assay: SPR, biotinylated receptor on streptavidin capture chip, IL-18 as free analyte
Target sequence in this assay (O95998 other isoform, or with tags, fused parts or gaps limits assumed, form in doubt): as the sequence (O95998 other isoform, or with tags, fused parts or gaps) above

[9] = target: human IL-18BP (amino acids 31-194), biotinylated (human) (UniProt O95998); assay: SPR, representative sensorgram, immobilized biotinylated hIL-18BP
[10] = target: human IL-18BP (amino acids 31-194), biotinylated (human) (UniProt O95998); assay: SPR; KD IL-18BP / KD IL-18Rα normalized to WT IL-18
[11] = target: human IL-18BP (amino acids 31-194), biotinylated (human) (UniProt O95998); assay: SPR, apparent KD
[12] = target: human IL-18BP (amino acids 31-194), biotinylated (human) (UniProt O95998); assay: SPR, Biacore T100; hIL-18BP as surface ligand; Exp 1

wild-type human Interleukin-18 (mature form), sequence (Q14116 37-193): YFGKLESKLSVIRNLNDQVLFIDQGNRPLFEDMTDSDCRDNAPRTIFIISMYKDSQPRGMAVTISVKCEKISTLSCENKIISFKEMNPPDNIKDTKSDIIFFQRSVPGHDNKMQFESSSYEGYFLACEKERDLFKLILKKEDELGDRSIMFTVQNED

human decoy-to-the-decoy (D2D) IL-18 consensus variant SEQ ID NO: 123 (from UniProt Q14116 37-193)
Kd [1]: 5.9 nM

human decoy-to-the-decoy (D2D) IL-18 consensus variant SEQ ID NO: 124 (from UniProt Q14116 37-193)
Kd [1]: 7.9 nM

human decoy-to-the-decoy (D2D) IL-18 consensus variant SEQ ID NO: 125 (from UniProt Q14116 37-193)
Kd [1]: 8.9 nM

human decoy-to-the-decoy (D2D) IL-18 variant SEQ ID NO: 94 (from UniProt Q14116 38-193)
Kd [1]: 6.4 nM

human decoy-to-the-decoy (D2D) IL-18 variant SEQ ID NO: 98 (from UniProt Q14116 38-193)
Kd [1]: 5.4 nM

human decoy-to-the-decoy (D2D) IL-18 variant SEQ ID NO: 99 (from UniProt Q14116 38-193)
Kd [1]: 4.8 nM

human decoy-to-the-decoy (D2D) IL-18 variant SEQ ID NO: 101 (from UniProt Q14116 37-193)
Kd [1]: 8.8 nM

human decoy-to-the-decoy (D2D) IL-18 variant SEQ ID NO: 120 (from UniProt Q14116 37-193)
Kd [1]: 4.2 nM

wild-type human Interleukin-18 (mature form) (from UniProt Q14116 37-193)
Kd ([2]; ligand): 0.6 nM
Kd [1]: 2.1 nM

wild-type human Interleukin-18 (mature form) (from UniProt Q14116 37-193) (ligand)
Kd [2]: 0.002 nM
Kd [3]: 1.9 pM
Dissociation Constant Ratio normalized to WT IL-18 [4]: 1
KD ratio IL-18BP/IL-18Rα [4]: 0.295
Kd [4]: 7.08 nM
koff [5]: 2.23e-07 s⁻¹
kon [5]: 518000 M⁻¹ s⁻¹
Kd [6]: 0.43 pM
Dissociation Constant Ratio normalized to WT IL-18 [7]: 1
KD ratio IL-18BP/IL-18Rα [7]: 0.000648
Kd [8]: < 1 nM
Kd [9]: 2 pM
IL-18 BP:Rα Dissociation Constant Ratio [10]: 1
Kd [11]: < 0.1 nM
Kd [12]: 0.694 pM
